Laboratory results taken from patent US20230340154A1 (Hoffmann-La Roche, published 2023).

Molecular target: T1, murine CD40 (mouse, UniProt P27512 20-289)
T1 construct: Endogenous CD40 on cells in the tumor microenvironment of C57BL/6J mice; also called mouse CD40; muCD40
T1 sequence: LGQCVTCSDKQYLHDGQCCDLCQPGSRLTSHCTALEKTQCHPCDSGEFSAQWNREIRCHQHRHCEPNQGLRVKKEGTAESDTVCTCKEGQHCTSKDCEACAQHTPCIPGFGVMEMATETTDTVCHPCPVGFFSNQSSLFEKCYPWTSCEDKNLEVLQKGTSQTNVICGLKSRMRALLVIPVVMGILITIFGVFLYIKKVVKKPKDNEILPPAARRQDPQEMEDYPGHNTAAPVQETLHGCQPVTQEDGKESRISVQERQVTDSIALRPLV
Test: in vivo fluorescence imaging of the Alexa647-labelled antibody in TC-1 tumors (devoid of FAP expression), four days after i.p. injection
Description: To assess FAP-CD40 antibody access to the TC-1 tumor, we intraperitoneally injected the anti-FAP-CD40 antibody labeled with Alexa647 into TC-1 and mEERL95 tumor-bearing mice that underwent local irradiation. The antibody was detectable in both tumors four days upon administration. No significant difference in the fluorescence intensity was detected in both TC-1 and mEERL95 tumors (FIG. 4H) which present similar CD40 mRNA expression levels (FIG. 4C).

B1: muCD40 x FAP (28H1) 4+1 bispecific antibody (VH on knob and VL on hole) (P1AD9139) (bispecific antibody)
light: DTVLTQSPALAVSPGERVTISCRASDSVSTLMHWYQQKPGQQPKLLIYLASHLESGVPARFSGSGSGTDFTLTIDPVEADDTATYYCQQSWNDPWTFGGGTKLELKRTVAAPSVFIFPPSDEQLKSGTASVVCLLNNFYPREAKVQWKVDNALQSGNSQESVTEQDSKDSTYSLSSTLTLSKADYEKHKVYACEVTHQGLSSPVTKSFNRGEC
heavy 1: not shown
heavy 2: EVQLVESDGGLVQPGRSLKLPCAASGFTFSDYYMAWVRQAPTKGLEWVASISYDGSSTYYRDSVKGRFTISRDNAKSTLYLQMDSLRSEDTATYYCGRHSSYFDYWGQGVMVTVSSASTKGPSVFPLAPSSKSTSGGTAALGCLVKDYFPEPVTVSWNSGALTSGVHTFPAVLQSSGLYSLSSVVTVPSSSLGTQTYICNVNHKPSNTKVDKKVEPKSCDGGGGSGGGGSEVQLVESDGGLVQPGRSLKLPCAASGFTFSDYYMAWVRQAPTKGLEWVASISYDGSSTYYRDSVKGRFTISRDNAKSTLYLQMDSLRSEDTATYYCGRHSSYFDYWGQGVMVTVSSASTKGPSVFPLAPSSKSTSGGTAALGCLVKDYFPEPVTVSWNSGALTSGVHTFPAVLQSSGLYSLSSVVTVPSSSLGTQTYICNVNHKPSNTKVDKKVEPKSCDKTHTCPPCPAPEAAGGPSVFLFPPKPKDTLMISRTPEVTCVVVDVSHEDPEVKFNWYVDGVEVHNAKTKPREEQYNSTYRVVSVLTVLHQDWLNGKEYKCKVSNKALGAPIEKTISKAKGQPREPQVCTLPPSRDELTKNQVSLSCAVKGFYPSDIAVEWESNGQPENNYKTTPPVLDSDGSFFLVSKLTVDKSRWQQGNVFSCSVMHEALHNHYTQKSLSLSPGGGGGSGGGGSGGGGSGGGGSEIVLTQSPGTLSLSPGERATLSCRASQSVSRSYLAWYQQKPGQAPRLLIIGASTRATGIPDRFSGSGSGTDFTLTISRLEPEDFAVYYCQQGQVIPPTFGQGTKVEIK
notes: Four anti-mouse CD40 (FGK4.5) Fabs, human IgG1 P329G LALA knob-into-hole Fc, and 28H1 VH on the knob chain and VL on the hole chain; That paragraph says only 'anti-FAP-CD40 antibody'; also called FAP-CD40; anti-FAP-CD40
binding result: binds
